In paper PMC3882236, “A Neutralization Epitope in the Hepatitis C Virus E2 Glycoprotein Interacts with Host Entry Factor CD81” (PLoS ONE, 2014):

What was measured:
Experiment in all cases: luciferase-based plate binding assay; supernatant (100 uL/well) with E2-16Fc or a mutant form held on protein A-coated 96-well plates, room temperature, 1 h; PBS-T wash; CD81-Luc supernatant (2.5x10^6 units of luciferase activity in 30 uL) added for 1 h, with or without 1H8 (10 or 50 ug/reaction); PBS-T rinse; bound luciferase activity read
Conditions in all cases: partners not purified
E2-16Fc Y527A = target: T1, E2-16Fc Y527A (Hepatitis C virus genotype 1a, H77 …, UniProt P27958 384-661, Y527A)
T1 construct: HCV envelope glycoprotein E2, residues 384-661, HCV genotype 1a H77 strain, single site mutant of E2-16Fc; Same construct as m1 with one substitution; source: Huh7, transiently transfected, secreted into the cell culture medium (supernatant)

E2-16Fc W529A = target: T2, E2-16Fc W529A (Hepatitis C virus genotype 1a, H77 …, UniProt P27958 384-661, W529A)
T2 construct: HCV envelope glycoprotein E2, residues 384-661, HCV genotype 1a H77 strain, single site mutant of E2-16Fc; Same construct as m1 with one substitution; source: Huh7, transiently transfected, secreted into the cell culture medium (supernatant)

E2-16Fc T526A = target: T3, E2-16Fc T526A (Hepatitis C virus genotype 1a, H77 …, UniProt P27958 384-661, T526A)
T3 construct: HCV envelope glycoprotein E2, residues 384-661, HCV genotype 1a H77 strain, single site mutant of E2-16Fc; Same construct as m1 with one substitution; source: Huh7, transiently transfected, secreted into the cell culture medium (supernatant)

B1: CD81-Luc (large extracellular domain of human CD81, residues 113-201, fused with gaussia luciferase) (domain or fragment, UniProt P60033 113-201, looked up)
chain: FVNKDQIAKDVKQFYDQALQQAVVDDDANNAKAVVKTFHETLDCCGSSTLTALTTSVLKNNLCPSGSNIISNLFKEDCHQKIDDLFSGK
notes: human CD81, large extracellular domain, residues 113-201; source: Huh7, transiently transfected, secreted into the cell culture medium (supernatant)
- percent reduction of binding compared to the wild-type E2-16Fc (E2-16Fc Y527A): 98.4%
- percent reduction of binding compared to the wild-type E2-16Fc (E2-16Fc W529A): 99.2%
- percent reduction of binding compared to the wild-type E2-16Fc (E2-16Fc T526A): 83.1%
